Experimental data from paper PMC8017705 (Proceedings of the National Academy of Sciences of the …, 2021).
The star is where a group is joined. Biotin = O=C1N[C@H]2[C@H](CS[C@H]2CCCCC(=O)*)N1

Biological target: T1, human RORγt ligand binding domain (residues 265 to 518) with an N-terminal His6-tag (human, UniProt P51449-1 265-518)
T1 sequence (looked up): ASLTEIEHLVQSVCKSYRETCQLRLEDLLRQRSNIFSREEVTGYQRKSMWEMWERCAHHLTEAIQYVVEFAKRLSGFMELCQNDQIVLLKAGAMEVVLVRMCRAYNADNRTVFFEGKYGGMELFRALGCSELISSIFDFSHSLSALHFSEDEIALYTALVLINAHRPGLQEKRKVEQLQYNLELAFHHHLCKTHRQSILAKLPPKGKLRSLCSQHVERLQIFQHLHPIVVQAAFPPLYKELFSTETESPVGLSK
Assay: AlphaScreen or HTRF

- binding result: binds
B1: N-terminal biotinylated SRC-1 box2 peptide (peptide)
peptide: Biotin-PSSHSSLTARHKILHRLLQEGSPSD-NH2
SMILES: CC[C@H](C)[C@H](NC(=O)[C@H](CCCCN)NC(=O)[C@H](Cc1c[nH]cn1)NC(=O)[C@H](CCCNC(=N)N)NC(=O)[C@H](C)NC(=O)[C@@H](NC(=O)[C@H](CC(C)C)NC(=O)[C@H](CO)NC(=O)[C@H](CO)NC(=O)[C@H](Cc1c[nH]cn1)NC(=O)[C@H](CO)NC(=O)[C@H](CO)NC(=O)[C@@H]1CCCN1C(=O)CCCC[C@@H]1SC[C@@H]2NC(=O)N[C@@H]21)[C@@H](C)O)C(=O)N[C@@H](CC(C)C)C(=O)N[C@@H](Cc1c[nH]cn1)C(=O)N[C@@H](CCCNC(=N)N)C(=O)N[C@@H](CC(C)C)C(=O)N[C@@H](CC(C)C)C(=O)N[C@@H](CCC(N)=O)C(=O)N[C@@H](CCC(=O)O)C(=O)NCC(=O)N[C@@H](CO)C(=O)N1CCC[C@H]1C(=O)N[C@@H](CO)C(=O)N[C@@H](CC(=O)O)C(N)=O
